{"source": "patent US20150023989A1", "about": "(Seagen, published 2015)", "binders": {"B1": {"name": "parental Fab fragment M048-D01 (Fab, V domains shown)", "VH": "EVQLLESGGGLVQPGGSLRLSCAASGFTFSSYAMSWVRQAPGKGLEWVSAISGSGTSTYYADSVKGRFTISRDNSKNTLYLQMNSLRAEDTAVYYCARVRYNWNHGDWFDPWGQGTLVTVSS", "VL": "QSVLTQPPSASGTPGQRVTISCSGSSSNIGNNYVSWYQQLPGTAPKLLIYENYNRPAGVPDRFSGSKSGTSASLAISGLRSEDEADYYCSSWDDSLNYWVFGGGTKLTVL", "notes": "Fab from the n-CoDeR phage display library, expressed in E. coli and purified through its his-tag; constant domains and tag are not; also called M048-D01 Fab; sFab"}}, "target": "T1, hFGFR2α-Fc (IIIb) (Human, UniProt P21802-3 22-378, biotinylated with biotin-LC-NHS (2-fold molar excess), positions not stated)", "T1 construct": "Bought protein; also called RnD Systems 663-FR; not shown: Fc part of the bought fusion protein", "T1 sequence (P21802 other isoform, or with tags, fused parts or gaps limits assumed)": "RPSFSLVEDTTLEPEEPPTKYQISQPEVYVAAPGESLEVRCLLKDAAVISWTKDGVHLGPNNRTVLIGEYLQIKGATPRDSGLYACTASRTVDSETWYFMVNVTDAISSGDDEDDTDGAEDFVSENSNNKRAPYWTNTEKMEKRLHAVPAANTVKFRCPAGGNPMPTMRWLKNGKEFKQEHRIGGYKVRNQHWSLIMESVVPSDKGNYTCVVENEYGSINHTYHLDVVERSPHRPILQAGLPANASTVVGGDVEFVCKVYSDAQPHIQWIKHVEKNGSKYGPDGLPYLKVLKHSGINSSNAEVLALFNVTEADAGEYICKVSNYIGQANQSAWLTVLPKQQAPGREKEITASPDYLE", "assay": "ELISA; biotinylated Fc fusion protein on streptavidin plate, Fab at 1 µg/ml; signal against TRAIL-Fc wells (+++: ratio >5)", "data": [{"binder": "B1", "values": [{"measurement": "binding result", "value": "binds"}]}]}
